Measured values reported in patent US8840891 (RSR, dated 2014).
Like-named read-outs stand apart in the source and are kept apart here.

Legend:
[1] = biological target: wild type human TSHR (human) (UniProt P16473); assay: cell-based or functional assay
[2] = biological target: TSHR with Tyr82 mutated to Alanine (human) (UniProt P16473); assay: cell-based or functional assay
[3] = biological target: wild type human TSHR (human) (UniProt P16473); assay: cell-based or functional assay; remark: listed apart in the source
[4] = biological target: TSHR with Lys183 mutated to Aspartic acid (human) (UniProt P16473); assay: cell-based or functional assay
[5] = biological target: TSHR coated onto tubes (TSHR coated tubes) (human) (UniProt P16473); assay: TSHR coated tubes, in the presence of HBD pool (Table 5)
[6] = biological target: TSHR coated onto tubes (TSHR coated tubes) (human) (UniProt P16473); assay: TSHR coated tubes, in presence of HBD pool
[7] = biological target: TSHR with Tyr185 mutated to Alanine expressed on CHO cells (human) (UniProt P16473); assay: cell-based or functional assay
[8] = biological target: wild type human TSHR (thyrotropin receptor) expressed on CHO cells (human) (UniProt P16473); assay: cell-based or functional assay
[9] = biological target: human TSHR, wild type, expressed on CHO cells (human) (UniProt P16473); assay: cell-based or functional assay

Molecule: 5C9 IgG (antibody)
- cyclic AMP; 5C9 0.01 µg/mL + TSH (fmol/cell well) [1]: 13900
- cyclic AMP; 5C9 0.1 µg/mL + TSH (fmol/cell well) [1]: 6250
- cyclic AMP; 5C9 1.0 µg/mL + TSH (fmol/cell well) [1]: 1600
- cyclic AMP; 5C9 10 µg/mL + TSH (fmol/cell well) [1]: 822
- cyclic AMP; 5C9 100 µg/mL + TSH (fmol/cell well) [1]: 978
- cyclic AMP; 5C9 100 µg/mL only (fmol/cell well) [1]: 289
- Mutated/wild type (%); 5C9 0.01 µg/mL + TSH [2]: 113%
- Mutated/wild type (%); 5C9 0.1 µg/mL + TSH [2]: 203%
- Mutated/wild type (%); 5C9 1.0 µg/mL + TSH [2]: 185%
- Mutated/wild type (%); 5C9 10 µg/mL + TSH [2]: 200%
- Mutated/wild type (%); 5C9 100 µg/mL + TSH [2]: 105%
- Mutated/wild type (%); 5C9 100 µg/mL only [2]: 494%
- cyclic AMP; 5C9 0.01 µg/mL + TSH (fmol/cell well) [2]: 15700
- cyclic AMP; 5C9 0.1 µg/mL + TSH (fmol/cell well) [2]: 12700
- cyclic AMP; 5C9 1.0 µg/mL + TSH (fmol/cell well) [2]: 2960
- cyclic AMP; 5C9 10 µg/mL + TSH (fmol/cell well) [2]: 1650
- cyclic AMP; 5C9 100 µg/mL + TSH (fmol/cell well) [2]: 1030
- cyclic AMP; 5C9 100 µg/mL only (fmol/cell well) [2]: 1430
- cyclic AMP; 5C9 0.01 µg/mL + TSH (fmol/cell well) [3]: 12900
- cyclic AMP; 5C9 0.1 µg/mL + TSH (fmol/cell well) [3]: 8580
- cyclic AMP; 5C9 1.0 µg/mL + TSH (fmol/cell well) [3]: 3420
- cyclic AMP; 5C9 10 µg/mL + TSH (fmol/cell well) [3]: 1110
- cyclic AMP; 5C9 100 µg/mL + TSH (fmol/cell well) [3]: 1720
- cyclic AMP; 5C9 100 µg/mL only (fmol/cell well) [3]: < 12.5
- Mutated/wild type (%); 5C9 0.01 µg/mL + TSH [4]: 160%
- Mutated/wild type (%); 5C9 0.1 µg/mL + TSH [4]: 202%
- Mutated/wild type (%); 5C9 1.0 µg/mL + TSH [4]: 370%
- Mutated/wild type (%); 5C9 10 µg/mL + TSH [4]: 591%
- Mutated/wild type (%); 5C9 100 µg/mL + TSH [4]: 524%
- cyclic AMP; 5C9 0.01 µg/mL + TSH (fmol/cell well) [4]: 20600
- cyclic AMP; 5C9 0.1 µg/mL + TSH (fmol/cell well) [4]: 17300
- cyclic AMP; 5C9 1.0 µg/mL + TSH (fmol/cell well) [4]: 12700
- cyclic AMP; 5C9 10 µg/mL + TSH (fmol/cell well) [4]: 6590
- cyclic AMP; 5C9 100 µg/mL + TSH (fmol/cell well) [4]: 9010
- cyclic AMP; 5C9 100 µg/mL only (fmol/cell well) [4]: 54

B1: 5C9 IgG (human monoclonal autoantibody to the TSHR) (antibody, from another filing, V domains shown)
VH: EVQLVESGGGLIQPGGSLRLSCAASGFTVSSNYMSWVRQAPGKGLEWVSVTYSGGSTSYADSVKGRFTISRDNSKNTLYLQMNSLRAEDTAVYYCARGGRYCSSISCYARSGCDYWGQGTLVTVSS
VL: AIQMTQSPSSLSASVGDRVTITCRASQSISNYLNWYQQKPGKAPKLLIYAASSLQSGVPSRFSGSGSGTDFTLTISSLQPEDFATYYCQQSYSSPSTTFGQGTKLEIK
- % of labelled protein bound [5]: 13%
- % binding of labelled tracer [6]: 20%
- Cyclic AMP produced; 5C9 0.01 µg/mL + TSH (fmol/cell well) [7]: 9370
- Cyclic AMP produced; 5C9 0.1 µg/mL + TSH (fmol/cell well) [7]: 4540
- Cyclic AMP produced; 5C9 1.0 µg/mL + TSH (fmol/cell well) [7]: 1200
- Cyclic AMP produced; 5C9 10 µg/mL + TSH (fmol/cell well) [7]: 301
- Cyclic AMP produced; 5C9 100 µg/mL only (fmol/cell well) [7]: 163
- Mutated/wild type (%); 5C9 0.01 µg/mL + TSH [7]: 54%
- Mutated/wild type (%); 5C9 0.1 µg/mL + TSH [7]: 73%
- Mutated/wild type (%); 5C9 1.0 µg/mL + TSH [7]: 72%
- Mutated/wild type (%); 5C9 10 µg/mL + TSH [7]: 63%
- Mutated/wild type (%); 5C9 100 µg/mL only [7]: 133%
- Cyclic AMP produced; 5C9 0.01 µg/mL + TSH (fmol/cell well) [8]: 17300
- Cyclic AMP produced; 5C9 0.1 µg/mL + TSH (fmol/cell well) [8]: 6220
- Cyclic AMP produced; 5C9 1.0 µg/mL + TSH (fmol/cell well) [8]: 1660
- Cyclic AMP produced; 5C9 10 µg/mL + TSH (fmol/cell well) [8]: 481
- Cyclic AMP produced; 5C9 100 µg/mL + TSH (fmol/cell well) [8]: 275
- Cyclic AMP produced; 5C9 100 µg/mL only (fmol/cell well) [8]: 123
- cyclic AMP; Exp 1; 5C9 0.01 µg/mL + M22 3 ng/mL [9]: 48.1 pmol/mL
- cyclic AMP; Exp 1; 5C9 0.1 µg/mL + M22 3 ng/mL [9]: 6 pmol/mL
- cyclic AMP; Exp 1; 5C9 1 µg/mL + M22 3 ng/mL [9]: 0.93 pmol/mL
- cyclic AMP; Exp 1; 5C9 10 µg/mL + M22 3 ng/mL [9]: 0.36 pmol/mL
- cyclic AMP; Exp 1; 5C9 100 µg/mL + M22 3 ng/mL [9]: 0.35 pmol/mL
- cyclic AMP; Exp 1; 5C9 100 µg/mL only [9]: 0.35 pmol/mL
- cyclic AMP; Exp 2; 5C9 0.001 µg/mL + M22 3 ng/mL [9]: 63.3 pmol/mL
- cyclic AMP; Exp 2; 5C9 0.01 µg/mL + M22 3 ng/mL [9]: 57.3 pmol/mL
- cyclic AMP; Exp 2; 5C9 0.1 µg/mL + M22 3 ng/mL [9]: 4.17 pmol/mL
- cyclic AMP; Exp 2; 5C9 10 µg/mL + M22 3 ng/mL [9]: 0.14 pmol/mL
- cyclic AMP; Exp 2; 5C9 100 µg/mL only [9]: 0.69 pmol/mL
- cyclic AMP; Exp 2; 5C9 + M22 3 ng/mL [9]: 2.54 pmol/mL
- cyclic AMP; Exp 3; 5C9 0.001 µg/mL + M22 0.3 ng/mL [9]: 13.3 pmol/mL
- cyclic AMP; Exp 3; 5C9 0.01 µg/mL + M22 0.3 ng/mL [9]: 13.1 pmol/mL
- cyclic AMP; Exp 3; 5C9 0.1 µg/mL + M22 0.3 ng/mL [9]: 1.43 pmol/mL
- cyclic AMP; Exp 3; 5C9 1 µg/mL + M22 0.3 ng/mL [9]: 0.02 pmol/mL
- cyclic AMP; Exp 3; 5C9 10 µg/mL + M22 0.3 ng/mL [9]: 0.2 pmol/mL
- cyclic AMP; Exp 3; 5C9 100 µg/mL + M22 0.3 ng/mL [9]: 0.05 pmol/mL
- cyclic AMP; Exp 3; 5C9 100 µg/mL only [9]: 0.58 pmol/mL
- cyclic AMP; Exp 4; 5C9 0.001 µg/mL + M22 0.3 ng/mL [9]: 33.1 pmol/mL
- cyclic AMP; Exp 4; 5C9 0.01 µg/mL + M22 0.3 ng/mL [9]: 31.5 pmol/mL
- cyclic AMP; Exp 4; 5C9 0.1 µg/mL + M22 0.3 ng/mL [9]: 6 pmol/mL
- cyclic AMP; Exp 4; 5C9 1 µg/mL + M22 0.3 ng/mL [9]: 0.21 pmol/mL
- cyclic AMP; Exp 4; 5C9 10 µg/mL + M22 0.3 ng/mL [9]: 0.4 pmol/mL
- cyclic AMP; Exp 4; 5C9 100 µg/mL + M22 0.3 ng/mL [9]: 0.22 pmol/mL
- cyclic AMP; Exp 4; 5C9 100 µg/mL only [9]: 0.12 pmol/mL
